From patent US20150105324A1 (INDIANA UNIVERSITY RESEARCH AND TECHNOLOGY, published 2015)

Target: biotinylated PSD95 (PDZ domains 1-3, residues 1-435 of human PSD95, fused to a biotin acceptor peptide) (human, UniProt P78352 1-435, biotin at its internal biotin acceptor site)
Sequence (P78352 1-435): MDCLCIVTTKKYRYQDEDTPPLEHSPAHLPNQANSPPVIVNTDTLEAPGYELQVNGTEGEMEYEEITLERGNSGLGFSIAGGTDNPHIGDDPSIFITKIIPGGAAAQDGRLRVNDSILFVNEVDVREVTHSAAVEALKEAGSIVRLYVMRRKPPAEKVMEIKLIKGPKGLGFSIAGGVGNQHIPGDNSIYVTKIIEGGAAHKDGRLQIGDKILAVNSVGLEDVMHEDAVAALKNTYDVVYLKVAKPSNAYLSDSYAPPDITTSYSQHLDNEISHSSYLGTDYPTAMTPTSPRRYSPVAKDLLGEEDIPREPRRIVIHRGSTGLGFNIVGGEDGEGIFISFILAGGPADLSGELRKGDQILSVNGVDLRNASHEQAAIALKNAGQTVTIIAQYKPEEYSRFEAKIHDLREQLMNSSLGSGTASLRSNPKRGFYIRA

B1: Tat-nNOS (1-299) fusion protein (other)
chain: YGRKKRRQRRRMEDHMFGVQQIQPNVISVRLFKRKVGGLGFLVKERVSKPPVIISDLIRGGAAEQSGLIQAGDIILAVNGRPLVDLSYDSALEVLRGIASETHVVLILRGPEGFTTHLETTFTGDGTPKTIRVTQPLGPPTKAVDLSHQPPAGKEQPLAVDGASGPGNGPQHAYDDGQEAGSLPHANGLAPRPPGQDPAKKATRVSLQGRGENNELLKEIEPVLSLLTSGSRGVKGGAPAKAEMKDMGIQVDRDLDGKSHKPLPLGVENDRVFNDLWGKGNVPVVLNNPYSEKEQPPTSGKQSPTKNGSP
- IC50: 300 nM
